No end group written: not given here.
What was measured:
[1] = Sedimentation equilibrium analytical ultracentrifugation (SE-AUC); assay type: physicochemical; details: for Oligomeric state (equilibrium model) / Average molecular weight obtained from the fit: SE-AUC; for Oligomeric state (equilibrium model): density matched 10 mM C14-betaine micelles, 100 mM HEPES pH 7.4, 25% D2O, 25 °C; for Average molecular weight obtained from the fit: peptide alone, global fit, single species model, 495 nm (FITC-TLR2) or 400 nm (coumarin-TLR6)
Description: (§1) Supplementary file pone.0048875.s003.tif: Figure S3 TLR2 Homotypic Sedimentation Equilibrium AUC. Sedimentation equilibrium profile at 495 nm of FITC-labeled TLR2 in density matched C14-betaine micelles (10 mM) in HEPES buffer (100 mM, pH 7.4). The partial specific volume and the solution density were fixed at 0.78730 mL/g and 1.031 g/mL, respectively. The data was analyzed using a global fitting routine. […] (TIF) Click here for additional data file.
as §1, with “pone.0048875.s004.tif:” for “pone.0048875.s003.tif:”, “S4 TLR6” for “S3 TLR2”, “400” for “495”, “coumarin-labeled TLR6” for “FITC-labeled TLR2”, “0.78705” for “0.78730”
as §1, with “pone.0048875.s005.tif:” for “pone.0048875.s003.tif:”, “S5 TLR2-TLR6 Heterotypic” for “S3 TLR2 Homotypic”, “7.4) in the presence of 2 equiv. of coumarin-labeled TLR6 peptide.” for “7.4).”
Equilibrium sedimentation was used primarily to determine the association state of TLR2, TLR6, and TLR2-TLR6. The experiments were performed in a Beckman XL-I analytical ultracentrifuge (Beckman Coulter) using six-channel carbon-epoxy composite centerpieces at 25 °C. Peptides were co-dissolved in trifluoroethanol (TFE) and C14-betaine. The organic solvent was removed using dry nitrogen gas and the resulting thin film of peptide/detergent mixture was dried overnight. The sample was then dissolved in buffer previously determined to match the density of the detergent component (100 mM HEPES buffer (pH= 7.4) buffer containing 25% D2O). The final concentration of C14-betaine is 10 mM in all of the samples. Peptide concentrations were determined by UV-Vis on the Beckman Coulter XL-I and dilutions were carried out to get concentrations in the desired absorbance ranges of the instrument (0.3-1) using the following extinction coefficients: 39,300 M^-1cm^-1 at 400 nm for coumarin labeled peptides and 69,000 M^-1cm^-1 at 495 nm for FITC labeled peptides. Data at different measurement speeds (30, 35 krpm) and different peptide:detergent ratios were analyzed by global curve-fitting of radial concentration gradients (measured using optical absorption) to the sedimentation equilibrium equation. Absorbance at both 400 nm and 495 nm was measured. Peptide partial specific volumes were calculated using previously described methods and residue molecular weights corrected for the 25% D2O exchange expected for the density-matched buffer. The solvent density (1.031 g/ml) was calculated using the program Sednterp. These coefficients were multiplied by the molar detergant ratio concentration units. […]
where E = baseline (zero concentration) absorbance, co is the peptide/detergent ratio of the peptide at ro, ε is the molar extinction coefficient, l is the optical path length, ω =2π*RPM, R= 8.3144 ×10^7 erg K^-1mol^-1 , T is temperature in K, M is the buoyant molecular weight of the peptide. […]

[2] = target: T1, 7-hydroxycoumarin labeled TLR1 TMD peptide (Homo sapiens, UniProt Q15399); assay: FRET titration, TLR2-TLR1; assay type: binding; details: nM of acceptor labeled peptide; donor coumarin-TLR1 20 nM, fluorescein-TLR2 0-1500 nM, 1 mM C14-betaine, 100 mM HEPES pH 7.4; Hill equation; read-out: Dissociation constant, TLR2-TLR1 interaction
T1 construct: we synthesized peptides for the TLR1, TLR2, and TLR6 TMDs; made in house; host or cells: chemical solid-phase synthesis on Rink Amide resin (C-terminal amide)
T1 sequence (Q15399 581-601 limits assumed): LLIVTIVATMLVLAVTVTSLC
Description: (§2) Using the same TLR1, TLR2, and TLR6 peptides, as described above, we were able to monitor the heterotypic interactions between TLR2-TLR1 and TLR2-TLR6 using a previously reported Förster resonance energy transfer (FRET) assay. […] The dissociation constant for the TLR2-TLR1 interaction was 230.8±20.0 nM of acceptor labeled peptide and for TLR2-TLR6 it was 286.5±14.8 nM of acceptor labeled peptide (Fig. 6C). […] SE-AUC was also used to investigate the oligomeric state of the TLR2-TLR6 heterotypic interaction.
(§3) Figure 6 TLR2-TLR1 and TLR2-TLR6 Heterotypic Interactions Measured by Förster Resonance Energy Transfer. Synthetic TMD peptides were co-incubated in micelles with the FRET donor concentration fixed to be 20 nM and the FRET acceptor concentration varied from 0–1500 nM. The donor was excited at 415 nm and emission was monitored from 440–600 nm. Only donor emission is shown as the excitation-emission separation led to a high background signal seen in the acceptor channel. (A) TLR2-TLR1 donor channel. (B) TLR2-TLR6 donor channel. (C) FRET efficiency based on decrease in donor signal at increasing acceptor concentrations.
(§4) FRET was used to directly probe the heterotypic association of the synthetic peptides. FRET experiments were performed on a Horiba Fluorolog-3 using a 0.3 cm path length cuvette. […]

[3] = target: T2, 7-hydroxycoumarin labeled TLR6 TMD peptide (Homo sapiens, UniProt Q9Y2C9); assay: FRET titration, TLR2-TLR6; assay type: binding; details: nM of acceptor labeled peptide; donor coumarin-TLR6 20 nM, fluorescein-TLR2 0-1500 nM, 1 mM C14-betaine, 100 mM HEPES pH 7.4; Hill equation; read-out: Dissociation constant, TLR2-TLR6 interaction
T2 construct: we synthesized peptides for the TLR1, TLR2, and TLR6 TMDs; made in house; host or cells: chemical solid-phase synthesis on Rink Amide resin (C-terminal amide)
Description: as §2, §3, §4

[4] = 10 mM C14-betaine, 100 mM HEPES pH 7.4

Row | Substance | Oligomeric state (equilibrium model) [1] | Average molecular weight obtained from the fit [1, 4] [Da] | Kd [2] [nM] | Kd [3] [nM] | Average molecular weight obtained from the fit, in the presence of TLR6 ([1]; SE-AUC at 495 nm, FITC-labeled TLR2 with 2 equiv. of coumarin-labeled TLR6 peptide, 10 mM C14-betaine, 100 mM HEPES pH 7.4) [Da]
1 | TLR6*: TLR6 TMD chimera with nonfunctional ToxR* domain (negative phenotype) (GNRASITLLIVTIGATMLVLAVTVTSLCIYLGSLIN; also: fused to non-functional ToxR* (S87H) and maltose binding protein, ends not given here) | monomer-dimer equilibrium | 7680±866 |  |  | 
2 | TLR2*: TLR2 TMD chimera with nonfunctional ToxR* domain (negative phenotype) (GNRASALVSGMCCALFLLILLTGVLCGSLIN; cysteine pairing not given here; also: fused to non-functional ToxR* (S87H) and maltose binding protein, ends not given here) | monomer-dimer-tetramer equilibrium | 14135±370 | 231 ± 20 | 286 ± 14.8 | 12330±506

— paper PMC3498381, “Isolated Toll-like Receptor Transmembrane Domains Are Capable of Oligomerization” (PLoS ONE, 2012)
